Article PMC4394230

Columns and labels:
[1] = biological target: DR4-Ig (death receptor 4 / TRAIL-R1, Ig fusion protein) (UniProt O00220)
[2] = biological target: DR4-Ig (death receptor 4 / TRAIL-R1, Ig fusion protein) (UniProt O00220); remark: listed apart in the source
[3] = biological target: rhTRAIL-C3 (TRAIL G131R/N199R/K201H mutant) (human) (UniProt P50591); experiment: SEC

Sequence of UniProt O00220 (O00220 24-239): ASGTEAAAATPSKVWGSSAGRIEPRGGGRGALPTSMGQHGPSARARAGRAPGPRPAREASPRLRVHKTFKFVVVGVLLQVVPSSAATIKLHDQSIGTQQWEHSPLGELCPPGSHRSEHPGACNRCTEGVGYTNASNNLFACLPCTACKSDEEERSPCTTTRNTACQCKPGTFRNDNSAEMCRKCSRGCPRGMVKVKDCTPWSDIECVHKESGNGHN

Substance: rhTRAIL-C3 (TRAIL G131R/N199R/K201H mutant) (from UniProt P50591 1-281) (ligand)
- level of cell death in HL-60 cells (100 ng/ml, TMRE, 12 hrs) [1]: 67%
- ED50 of apoptosis induction (annexin V) in DR4-responsive EM-2 cells, 24 hrs [2]: 3.78 ng/mL
- stoichiometry N [3]: 3
